Ends that are not written are not given here. * marks the point of attachment. Crotonyl(E) = C/C=C/C(=O)*

By Kd is commonly meant a measure of binding affinity in units of concentration. The low end stands for higher affinity, the high end for lower affinity.

The target in experiment [1] is GFP-GAS41 H43S protein (recombinant) (human, UniProt O95619 1-227, H43S). Put plainly: MST.
Experiment [2] deals with GAS41 YEATS domain (residues 11–150) (human, UniProt O95619 11-150). Nature of the experiment: ITC. On the technique in general: In ITC the heat of successive injections is recorded.
GAS41 YEATS domain (residues 11–150), sequence (O95619 11-150): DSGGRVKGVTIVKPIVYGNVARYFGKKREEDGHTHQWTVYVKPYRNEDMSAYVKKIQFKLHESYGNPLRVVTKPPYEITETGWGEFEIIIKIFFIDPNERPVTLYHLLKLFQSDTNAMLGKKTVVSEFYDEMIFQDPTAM

GFP-GAS41 H43S protein (recombinant), sequence (O95619 whole entry H43S, the tested form may be a part): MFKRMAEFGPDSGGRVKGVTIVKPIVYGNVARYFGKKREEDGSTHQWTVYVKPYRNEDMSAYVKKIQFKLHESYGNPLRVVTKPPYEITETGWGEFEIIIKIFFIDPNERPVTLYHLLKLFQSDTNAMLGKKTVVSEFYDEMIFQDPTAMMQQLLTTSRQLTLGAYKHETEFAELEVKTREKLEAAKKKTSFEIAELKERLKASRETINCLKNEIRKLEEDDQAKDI

On to ATKAARK(Crotonyl(E))SAPATG [Synthesized H3 K27cr (a.a. 21-33) peptide], for which the “fold reduction in binding against GAS41 wt” value in experiment [1] was 6 fold. In addition, in experiment [2], the dissociation constant Kd was 22.9 µM.

As to ATKAARK(Ac)SAPATG [Synthesized H3 K27ac (a.a. 21-33) peptide], the “fold reduction in binding against GAS41 wt” value in experiment [1] is about 2 fold. This molecule displayed a dissociation constant Kd in experiment [2] of 51.5 µM.

Source of the values: paper PMC11138481 (Molecular cell, 2023).
